Experimental data from the supplement of paper PMC10126150.
± gives the standard deviation of the averaged measurements.

Tested on: ATP
Test: switch fluorescence ratio, 500 uM ATP over buffer (Cy3 cluster intensity, sum of 5 cycles each) (fold (ratio)); higher = stronger signal-on switching upon ATP binding; sequences stand for … in TCGTCGGCAGCGTCAGATGTGTATAAGAGACAGTTTTTTTTTTTTTTTTTTTTTTTTT…TC
Settings: aptamer strand: ATP DNA aptamer (quencher-CACCTGGGGGAGTATTGCGGAGGAAGG + anchor), 100 nM annealed; ATP concentration: 500 uM
Summary of the method: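 Values give the fluorescence ratio for each switch-domain sequence, averaged from per-cluster ratios of summed target-cycle to summed buffer-cycle Cy3 intensity. The Cy3-labelled switching-strand clusters sat on a modified Illumina MiSeq flow-cell, were annealed to 100 nM quencher-labelled ATP aptamer, and were imaged in selection buffer, then after 15 min with 500 uM ATP at 22 °C. Five cycles ran with NaOH stripping and re-annealing between them, and clusters outside 100-1000 RFU were excluded.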
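Further: ATP exposure 15 min at 22 °C before imaging.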

| Sequence | switch fluorescence ratio |
| --- | --- |
| ACGTTTTGTC | 1 ± 0.061 |
| ACGTTTTTAG | 1 ± 0.013 |
| ACTAAAATAT | 1.021 ± 0.0093 |
| ACTAAAGACA | 1.0077 ± 0.00019 |
| ACTAAAGGCT | 1.01 ± 0.015 |
| ACTAAAGGG | 1.02 ± 0.028 |
| ACTAAAGGGC | 1.07 ± 0.034 |
| ACTAACGGGG | 1.35 ± 0.084 |
| ACTAAGCTTG | 1 ± 0.033 |
| ACTAAGGGGT | 1.05 ± 0.016 |
| ACTAATGGCT | 1.01 ± 0.02 |
| ACTACAAGTT | 1 ± 0.026 |
| ACTACATATG | 1.03 ± 0.016 |
| ACTACCGGCG | 1.09 ± 0.022 |
| ACTACGTCGA | 2.01 ± 0.21 |
| ACTAGATTGA | 1.01 ± 0.028 |
| ACTAGGGCAG | 1.035 ± 0.005 |
| ACTAGGGCGT | 1 ± 0.033 |
| ACTAGGTTAT | 1.16 ± 0.15 |
| ACTAGTAACG | 0.9938 ± 0.0098 |
| ACTAGTATGC | 0.992 ± 0.017 |
| ACTAGTATTA | 1 ± 0.036 |
| ACTAGTGGGG | 0.996 ± 0.017 |
| ACTATCTATT | 0.997 ± 0.034 |
| ACTATGAGCT | 1.04 ± 0.041 |

| Sequence | switch fluorescence ratio |
| --- | --- |
| ACTATGTCTT | 1.005 ± 0.0049 |
| ACTATGTGTA | 0.989 ± 0.014 |
| ACTATTGGTG | 1.12 ± 0.035 |
| ACTATTTTTC | 1.016 ± 0.0035 |
| ACTCAAACCA | 1.14 ± 0.035 |
| ACTCAATTTT | 1.05 ± 0.03 |
| ACTCAGGTGT | 3.23 ± 0.13 |
| ACTCATTCTC | 1.04 ± 0.033 |
| ACTCGAGGGA | 1.01 ± 0.011 |
| ACTCGCCCCA | 1.46 ± 0.084 |
| ACTCGCGGGA | 0.995 ± 0.028 |
| ACTCGGAGCG | 1.01 ± 0.038 |
| ACTCGGCCGG | 1.001 ± 0.009 |
| ACTCGGGA | 1.13 ± 0.16 |
| ACTCGGGGGC | 1.09 ± 0.23 |
| ACTCGGTCTG | 1.02 ± 0.027 |
| ACTCTAGTAC | 1.31 ± 0.034 |
| ACTCTATTTG | 1.04 ± 0.025 |
| ACTCTTTGAT | 1.02 ± 0.0093 |
| ACTGAACGGT | 1.14 ± 0.055 |
| ACTGAATGCT | 0.973 ± 0.049 |
| ACTGAATTTG | 1.02 ± 0.053 |
| ACTGAGGCCT | 1.05 ± 0.045 |
| ACTGATTTGT | 0.996 ± 0.048 |
| ACTGCCGGTC | 1.04 ± 0.041 |

| Sequence | switch fluorescence ratio |
| --- | --- |
| ACTGCGAATT | 1.07 ± 0.023 |
| ACTGCGTAAA | 0.991 ± 0.041 |
| ACTGCTTGGT | 0.996 ± 0.017 |
| ACTGGAGGAG | 1.01 ± 0.017 |
| ACTGGAGTTT | 1.01 ± 0.023 |
| ACTGGCTGAG | 1.01 ± 0.024 |
| ACTGGGGATT | 1.04 ± 0.036 |
| ACTGGGGCGG | 1.022 ± 0.0063 |
| ACTGGGGGGA | 1.02 ± 0.04 |
| ACTGGGGGGG | 0.995 ± 0.03 |
| ACTGGGGTCA | 1 ± 0.03 |
| ACTGGGGTTA | 0.9786 ± 0.0021 |
| ACTGGGTAAA | 1.002 ± 0.0086 |
| ACTGGGTTGG | 0.9922 ± 0.0074 |
| ACTGGTGACT | 1.01 ± 0.037 |
| ACTGTAATGT | 1.13 ± 0.011 |
| ACTGTATATT | 1.18 ± 0.023 |
| ACTGTATGTG | 1.05 ± 0.024 |
| ACTGTGGGGG | 1.01 ± 0.022 |
| ACTGTGTTTT | 0.972 ± 0.015 |
| ACTGTTCAGC | 0.9948 ± 0.0062 |
| ACTGTTTTTT | 1.02 ± 0.018 |
| ACTTAAATTA | 1.03 ± 0.036 |
| ACTTACAGAA | 1.23 ± 0.011 |
| ACTTACGGTT | 1.32 ± 0.18 |

| Sequence | switch fluorescence ratio |
| --- | --- |
| ACTTAGGTAA | 1.01 ± 0.024 |
| ACTTATCTAC | 1.05 ± 0.069 |
| ACTTATGATA | 1.02 ± 0.054 |
| ACTTATGGCT | 1.05 ± 0.022 |
| ACTTCTAAAC | 1.07 ± 0.044 |
| ACTTCTAATT | 1.01 ± 0.038 |
| ACTTCTTTGT | 1.1 ± 0.11 |
| ACTTGAAGTG | 0.997 ± 0.021 |
| ACTTGACGTG | 1.01 ± 0.059 |
| ACTTGATCCC | 1.02 ± 0.043 |
| ACTTGCCGTA | 0.992 ± 0.071 |
| ACTTGGATGG | 0.995 ± 0.028 |
| ACTTGGCTGT | 0.99842 ± 0.00092 |
| ACTTGGGACT | 1.04 ± 0.047 |
| ACTTGGGCAT | 0.993 ± 0.028 |
| ACTTGGGGCC | 0.971 ± 0.012 |
| ACTTGGGGGA | 0.9907 ± 0.0057 |
| ACTTGGGTAG | 0.9928 ± 0.0011 |
| ACTTGGTCGT | 1.04 ± 0.012 |
| ACTTGGTCTT | 0.974 ± 0.03 |
| ACTTGTAAAC | 1.01 ± 0.025 |
| ACTTGTAGGC | 1.01 ± 0.05 |
| ACTTTAATTG | 1.002 ± 0.0014 |
| ACTTTATTAG | 1.0103 ± 0.00038 |
| ACTTTGAAGT | 0.993 ± 0.024 |

| Sequence | switch fluorescence ratio |
| --- | --- |
| ACTTTGAATC | 0.998 ± 0.053 |
| ACTTTGCGGT | 1.078 ± 0.0015 |
| ACTTTGCGTT | 0.992 ± 0.011 |
| ACTTTGGACA | 1.038 ± 0.0052 |
| ACTTTGGCCC | 1.005 ± 1.1e-05 |
| ACTTTGGGAT | 1.023 ± 0.0029 |
| AGAAAAACAT | 1.034 ± 0.0073 |
| AGAAAAACCG | 1.05 ± 0.052 |
| AGAAAAATGC | 1.04 ± 0.088 |
| AGAAAAGAGT | 1.01 ± 0.017 |
| AGAAAAGGAA | 1 ± 0.017 |
| AGAAACAGCT | 1.04 ± 0.046 |
| AGAAAGCGAC | 1.17 ± 0.093 |
| AGAAAGGAAG | 1.01 ± 0.024 |
| AGAAAGGGCG | 0.94 ± 0.037 |
| AGAAAGTTTG | 1.01 ± 0.044 |
| AGAAATACGG | 1.21 ± 0.063 |
| AGAACCTGGG | 0.981 ± 0.055 |
| AGAACGGCGG | 0.972 ± 0.085 |
| AGAACTGAGA | 0.998 ± 0.077 |
| AGAACTGGCT | 0.988 ± 0.011 |
| AGAACTTTTA | 0.998 ± 0.015 |
| AGAAGAGTAA | 1.009 ± 0.0091 |
| AGAAGATTGT | 0.989 ± 0.013 |
| AGAAGCGGTT | 1.02 ± 0.025 |

| Sequence | switch fluorescence ratio |
| --- | --- |
| AGAAGGGCTT | 1 ± 0.026 |
| AGAAGGGGGA | 1.01 ± 0.039 |
| AGAAGGGGGG | 0.998 ± 0.022 |
| AGAAGGGGTA | 1.01 ± 0.046 |
| AGAAGGGTTG | 1 ± 0.023 |
| AGAAGTTAGG | 0.973 ± 0.013 |
| AGAAGTTGCG | 0.986 ± 0.0083 |
| AGAAGTTGGG | 0.993 ± 0.02 |
| AGAAGTTTTC | 0.973 ± 0.038 |
| AGAATCGACT | 0.997 ± 0.014 |
| AGAATCGGCG | 1.03 ± 0.0081 |
| AGAATCGTTG | 1.005 ± 0.0072 |
| AGAATGGGTG | 1.05 ± 0.036 |
| AGAATGTGGG | 0.996 ± 0.034 |
| AGAATTAAG | 0.96 ± 0.017 |
| AGAATTATTG | 0.9936 ± 0.0079 |
| AGAATTTATT | 1.01 ± 0.039 |
| AGAATTTTAG | 1.01 ± 0.016 |
| AGACAGCGAG | 1.015 ± 0.0021 |
| AGACAGGGCC | 0.988 ± 0.01 |
| AGACAGGGCT | 1.02 ± 0.042 |
| AGACAGGGGA | 1.02 ± 0.04 |
| AGACCAATTC | 1.095 ± 0.0037 |
| AGACCACTTG | 1.036 ± 0.0069 |
| AGACCGAGTT | 1.08 ± 0.096 |

| Sequence | switch fluorescence ratio |
| --- | --- |
| AGACCGCAGT | 1.137 ± 0.0071 |
| AGACCTCATA | 1.02 ± 0.021 |
| AGACGAAAAG | 1.03 ± 0.038 |
| AGACGAAAGT | 0.998 ± 0.054 |
| AGACGGCAAA | 1.03 ± 0.044 |
| AGACGGCGGG | 0.996 ± 0.012 |
| AGACGGGATG | 0.973 ± 0.084 |
| AGACTAGTCG | 0.972 ± 0.047 |
| AGACTCTTGA | 1 ± 0.0083 |
| AGACTTTCTT | 1.04 ± 0.02 |
| AGAGAAAAAG | 0.957 ± 0.042 |
| AGAGAGAAAG | 0.97 ± 0.025 |
| AGAGAGATCC | 1.02 ± 0.058 |
| AGAGATGGTT | 0.979 ± 0.012 |
| AGAGATTACG | 1.02 ± 0.034 |
| AGAGATTGGG | 0.965 ± 0.017 |
| AGAGCACAGG | 1.09 ± 0.018 |
| AGAGCAGCTG | 0.998 ± 0.041 |
| AGAGCAGTGT | 1.01 ± 0.014 |
| AGAGCGGGGG | 1.02 ± 0.038 |
| AGAGGAATTC | 1 ± 0.013 |
| AGAGGAATTT | 1.01 ± 0.02 |
| AGAGGAGAAT | 0.993 ± 0.0021 |
| AGAGGAGGCA | 0.9727 ± 0.0085 |
| AGAGGATATA | 0.988 ± 0.043 |

| Sequence | switch fluorescence ratio |
| --- | --- |
| AGAGGCCTTG | 0.969 ± 0.013 |
| AGAGGCTTAA | 1.01 ± 0.011 |
| AGAGGGCAGG | 0.995 ± 0.018 |
| AGAGGGCCAT | 0.9972 ± 0.0021 |
| AGAGGGCGGT | 1.02 ± 0.024 |
| AGAGGGCGTC | 1.04 ± 0.046 |
| AGAGGGGAAT | 1.01 ± 0.023 |
| AGAGGGGCGG | 1 ± 0.016 |
| AGAGGGGTAC | 0.992 ± 0.047 |
| AGAGGGGTCA | 1.01 ± 0.02 |
| AGAGGGTAGT | 1.01 ± 0.022 |
| AGAGGGTTAT | 0.985 ± 0.038 |
| AGAGGTGGAG | 0.993 ± 0.03 |
| AGAGGTTTTG | 1.01 ± 0.042 |
| AGAGTAGTTA | 0.9737 ± 0.0036 |
| AGAGTATCTA | 0.962 ± 0.048 |
| AGAGTCGCGG | 1 ± 0.015 |
| AGAGTGACGT | 0.9848 ± 0.0018 |
| AGAGTGGAAG | 0.977 ± 0.051 |
| AGAGTGGGCC | 0.956 ± 0.07 |
| AGAGTGGTGT | 1 ± 0.024 |
| AGAGTTAAAA | 1.04 ± 0.0077 |
| AGAGTTCATA | 1.04 ± 0.027 |
| AGAGTTCTCG | 0.978 ± 0.012 |
| AGAGTTGGTC | 1 ± 0.068 |
